This note sets out measurements from publication PMC3176765, “Mechanism of the Interaction between the Intrinsically Disordered C-Terminus of the Pro-Apoptotic ARTS Protein and the Bir3 Domain of XIAP” (PLoS ONE, 2011).

As usually defined, the stoichiometry N is a count of units in the complex or per binding partner.

Positions of bridges follow the written chain, without caps; N, C: chain ends. Residues, ends and D or L forms follow the SMILES beside them. Chains are numbered I, II in the order given. No end group written: not given here. *: point of attachment. 5FAM = O=C1OC2(c3ccc(O)cc3Oc3cc(O)ccc32)c2ccc(C(=O)*)cc21

For series [1], the target named is T1, Bir3 subunit of the XIAP (residues 252–350) (Homo sapiens, UniProt P98170).
T1 construct: The pET-21b(+) vector containing XIAP (252–350) Bir3 domain with a C-terminal His Tag; His tag (C); made in house; host or cells: E. coli BL21 Star (DE3)
Briefly: Fluorescence spectroscopy binding of dimeric fl-ARTS 266–274 to Bir3 (Hill equation fit). The settings on record: fluorescence titration with Bir3; 20 mM Hepes pH 7.4, 45 mM NaCl, 10°C; Hill model, apparent averaged Kd; read-out: K d of dimeric peptide, fit to the Hill equation. The method, then:
The importance of Cys273 residue for Bir3 binding raised the question of whether disulfide bond formation is involved in the interaction with Bir3. Addition of a reducing agent weakened the interaction between the ARTS derived peptides and Bir3 (Figure 4A). This raised the possibility that a disulfide bond is formed between two ARTS peptide molecules to form an active dimer. To test this, a covalent dimer of ARTS 266–274 was prepared by forming a disulfide bond between the Cys273 residues of two peptide monomers. MS gave a single peak corresponding the mass of the dimer (data not shown). […] Changes in the chemical shift of the sequentially following His274 and preceding Gln272 were also observed. Binding of Bir3 to the dimeric fl-ARTS 266–274 was studied using fluorescence spectroscopy (Fig. 6C). […]
Measurements were performed at 10°C by using a PerkinElmer LS-50b luminescence spectrofluorimeter equipped with a Hamilton microlabM dispenser as described in [44]. The fluorescently labeled peptide concentrations were determined by using a UV spectrophotometer (Shimadzu, Kyoto, Japan). […] Additions of 5 µl were titrated at 90 sec intervals, the solution was stirred for 15 sec, and the fluorescence and anisotropy were measured after each addition by using an excitation wavelength of 480 nm and an emission wavelength of 530 nm. […]

Series [2] concerns the target Dimer fl-ARTS 266-274 (human). Kind of series: other fluorescence titration; Bir3 titrated into dimeric fl-ARTS 266-274; fluorescence fit to the Hill equation; apparent averaged Kd; 20 mM Hepes pH 7.4, 45 mM NaCl, 10°C.
Series [3] deals with T1, Bir3 subunit of the XIAP (residues 252–350). Briefly: Fluorescence anisotropy binding of fluorescein-labeled ARTS peptides to Bir3 (1:1 binding model). The settings on record: Bir3 titrated into fluorescein-labeled peptide, 20 mM Hepes pH 7.4, 45 mM NaCl, 10°C, no reducing agent, fit to 1:1 binding model, nb = no binding detected. The method, then:
Fluorescence anisotropy was used to characterize the interaction between ARTS CTD and the Bir3 subunit of XIAP. ARTS CTD (residues 248–274) was synthesized using standard Fmoc chemistry and labeled with fluorescein at its N-terminus. The Bir3 subunit of the XIAP (residues 252–350) was expressed with a His-tag at the C-terminus and purified (see materials and methods and Figure S1). The binding experiments were done in 20 mM Hepes buffer, pH 7.4, 45 mM NaCl, at 10°C. Bir3 was titrated into fl-ARTS CTD and the data were fit to 1∶1 binding model resulting in K d = 8.0±0.7 µM (Figure 4A).
The pET-21b(+) vector containing XIAP (252–350) Bir3 domain with a C-terminal His Tag was transformed into E. coli strain BL21 Star^+ (DE3) (Novagen). Cells were grown at 37°C in LB medium to an optical density (600 nm) of ∼0.6 and induced with 0.4 mM isopropyl-β-D-1-thiogalactoside (IPTG). Cells were harvested after 8 h of incubation at 37°C and were lysed by Microfluidizer (Microfluidics). The protein was purified on HiTrap nickel-Sepharose FF column (100×10 mm, GE Healthcare), using an FPLC system (ÁKTA explorer, Amersham Biosciences). The eluted protein was further purified by filtration on a Sephacryl S100 column (950×26 mm; Amersham Biosciences). The protein was stored in 20 mM Hepes pH 7.4, 50 mM NaCl, 10 mM βME, 0.02% sodium azide and was dialyzed before experimental use.
Measurements were performed at 10°C by using a PerkinElmer LS-50b luminescence spectrofluorimeter equipped with a Hamilton microlabM dispenser as described in [44]. The fluorescently labeled peptide concentrations were determined by using a UV spectrophotometer (Shimadzu, Kyoto, Japan). The fluorescein-labeled ARTS derived peptides were dissolved in 20 mM Hepes buffer, pH 7.4 and 45 mM NaCl. 1 ml of the labeled peptide solution was placed in a cuvette, and the non-labeled Bir3 (200 µl, 150 µM) was placed in the dispenser. Additions of 5 µl were titrated at 90 sec intervals, the solution was stirred for 15 sec, and the fluorescence and anisotropy were measured after each addition by using an excitation wavelength of 480 nm and an emission wavelength of 530 nm. Dissociation constants (K d) were calculated by fitting the fluorescence titration curves (corrected for dilution) or fluorescence anisotropy curves to 1∶1 binding model using KALEIDAGRAPH (Synergy Software, Reading, PA). The following equation was used for the single-site model of the fluorescence results: [drawing 1] Where, F0 is the initial fluorescence, ΔF is the amplitude of the fluorescence change from unbound and bound states, K d is the dissociation constant and [Bir3] is the added concentration of Bir3 domain. A similar equation was used to fit the anisotropy results by replacing the fluorescence (F) with anisotropy (R) changes.

The target in series [4] is T2, Bir3 domain of XIAP (residues 252-350) with a C-terminal His tag (UniProt P98170 252-350).
T2 construct: Stored with 10 mM beta-mercaptoethanol and dialysed before experimental use; also called Bir3 subunit of XIAP; XIAP (252-350); source: E. coli BL21 Star (DE3), purified (nickel-Sepharose, Sephacryl S100 gel filtration)
Kind of series: fluorescence polarisation; non-labeled Bir3 (200 µl, 150 µM) titrated in 5 µl additions into 1 ml of fluorescein-labeled peptide; 20 mM Hepes pH 7.4, 45 mM NaCl, 10°C; fit to 1:1 binding model. Particulars: both partners purified. (Fluorescence polarisation rises when a labelled molecule tumbles more slowly, as on binding a larger partner.)

Series [5] deals with T2, Bir3 domain of XIAP (residues 252-350) …. Briefly: NMR titration; TOCSY spectra of free and Bir3-bound ARTS CTD compared; peptide 0.5-1.5 mM, 20 mM deuterated Hepes, 45 mM potassium chloride, pH 6.8, 12°C. Particulars: both partners purified.
Series [6] deals with the molecule itself. Kind of series: SEC; analytical gel filtration of ARTS CTD 248-274 (1-2 mM) without DTT; 20 mM Hepes pH 7.4, 50 mM NaCl, 4°C; peaks identified by mass spectrometry; monomer to dimer.
In series [7] the target is T2, Bir3 domain of XIAP (residues 252-350) …. Kind of series: fluorescence polarisation; non-labeled Bir3 (200 µl, 150 µM) titrated in 5 µl additions into 1 ml of fluorescein-labeled peptide; 20 mM Hepes pH 7.4, 45 mM NaCl, 10°C; fit to 1:1 binding model. Particulars: both partners purified. The source holds these as a separate data set.

T1 sequence (P98170 252-350): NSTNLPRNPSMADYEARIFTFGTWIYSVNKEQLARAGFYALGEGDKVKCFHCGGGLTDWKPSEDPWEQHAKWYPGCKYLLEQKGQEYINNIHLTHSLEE
T2 sequence (P98170 252-350): as above

Consider `NC(=O)CC[C@H](NC(=O)CNC(=O)[C@H](CCC(N)=O)NC(=O)[C@H](Cc1c[nH]cn1)NC(=O)[C@H](CCC(=O)O)NC(=O)[C@H](CCC(N)=O)NC(=O)c1ccc2c(c1)C(=O)OC21c2ccc(O)cc2Oc2cc(O)ccc21)C(=O)NCC(=O)N[C@@H](CSSC[C@H](NC(=O)CNC(=O)[C@H](CCC(N)=O)NC(=O)CNC(=O)[C@H](CCC(N)=O)NC(=O)[C@H](Cc1c[nH]cn1)NC(=O)[C@H](CCC(=O)O)NC(=O)[C@H](CCC(N)=O)NC(=O)c1ccc2c(c1)C(=O)OC21c2ccc(O)cc2Oc2cc(O)ccc21)C(=O)N[C@@H](Cc1c[nH]cn1)C(=O)O)C(=O)N[C@@H](Cc1c[nH]cn1)C(=O)O` [Dimer fl-ARTS 266–274] (I: 5FAM-QEHQGQGCH-OH / II: 5FAM-QEHQGQGCH-OH; disulfide I:8-II:8), for which, in series [1], the Kd was found to be 2400 ± 100 nM.

In the case of “Bir3 domain of XIAP (residues 252-350) with a C-terminal His tag (from UniProt P98170 252-350) (domain or fragment)”, in series [2], the Kd was determined as 2400 nM.

Turning to “PPGAVKGTG [fl-ARTS 257–265, fluorescein-labeled peptide of ARTS residues 257–265]”, the “K d (µM), binding affinity to Bir3” value in series [3] is “nb”; in series [3] (listed as ARTS 257–265), “did not”.

“QEAQGQGCH [fl-ARTS 266–274 H268A, alanine-scan analogue of fl-ARTS 266–274]”: the “K d (µM), binding affinity to Bir3” value in series [3] is listed as “nb”; in series [3] (listed as ARTS 266–274 H268A) it was “did not bind”.

Take “QEHQGQGAH [fl-ARTS 266–274 C273A, alanine-scan analogue of fl-ARTS 266–274]”: the “K d (µM), binding affinity to Bir3” value is recorded as “nb” in series [3] and “did not bind” in series [3] (listed as Cys273A).

In the case of “YGPSLRLLA [fl-ARTS 248–256, fluorescein-labeled peptide of ARTS residues 248–256]”, the entries for the “K d (µM), binding affinity to Bir3” value in series [3] and in series [3] (listed as ARTS 248–256) were “nb” and “did not”, respectively.

B1: fl-ARTS 266-274 Q266A (peptide)
peptide: {5'/6'‑carboxyfluorescein}-AEHQGQGCH
notes: numbers count on: ARTS/Sept4_i2 (GenBank AAG45673.1); source: synthetic peptide
In turn, B1 yielded a Kd in series [4] of 900 ± 100 nM.

B2: fl-ARTS 266-274 Q271A (peptide)
peptide: {5'/6'‑carboxyfluorescein}-QEHQGAGCH
notes: as for B1
On to B2, for which, in series [4], the Kd amounted to 1300 ± 200 nM.

B3: fl-ARTS 248-274 (peptide)
peptide: {5(6)‑carboxyfluorescein}-YGPSLRLLAPPGAVKGTGQEHQGQGCH
notes: numbers count on: ARTS/Sept4_i2 (GenBank AAG45673.1); also called fl-ARTS CTD; fluorescein-labeled ARTS CTD 248-274; source: synthetic peptide
Take B3: the Kd in series [4] worked out at 8000 ± 700 nM.

B4: ARTS CTD 248-274 (not labelled) (peptide)
peptide: YGPSLRLLAPPGAVKGTGQEHQGQGCH
notes: numbers count on: ARTS/Sept4_i2 (GenBank AAG45673.1); also called ARTS C-terminal domain; source: synthetic peptide
For B4, the binding result in series [5] is on record as “binds”. Further, the “stoichiometry N” value in series [6] was found to be 2.

B5: fl-ARTS 266-274 H274A (peptide)
peptide: {5'/6'‑carboxyfluorescein}-QEHQGQGCA
notes: as for B1
Take B5: in series [4], the Kd came out at 800 ± 300 nM.

B6: fl-ARTS 266-274 Q269A (peptide)
peptide: {5'/6'‑carboxyfluorescein}-QEHAGQGCH
notes: as for B1
Molecule B6 gave a Kd in series [4] of 1000 ± 300 nM.

B7: fl-ARTS 266-274 E267A (peptide)
peptide: {5'/6'‑carboxyfluorescein}-QAHQGQGCH
notes: as for B1
On to B7, for which, in series [4], the Kd was 3600 ± 800 nM.

B8: fl-ARTS 266-274 (peptide)
peptide: {5'/6'‑carboxyfluorescein}-QEHQGQGCH
notes: numbers count on: ARTS/Sept4_i2 (GenBank AAG45673.1); also called ARTS 266-274 monomer; source: synthetic peptide
With B8, the Kd in series [7] amounted to 2900 ± 300 nM; in series [4], 2500 ± 300 nM.
